Here are results for three substances from article PMC11992040.

As usually defined, the stoichiometry N is the number of molecules, sites or subunits per partner or assembly.

The target in experiment [1] is SmT1 (CT), resistin-trimerized SARS-CoV-2 spike ectodomain with complex-type N-glycans (SARS-CoV-2 | human) (UniProt P0DTC2). Kind of experiment: SEC.
The target of experiment [2] is SmT2 (CT), T4 foldon-trimerized SARS-CoV-2 spike ectodomain with complex-type N-glycans (SARS-CoV-2 | bacteriophage T4) (UniProt P0DTC2). Kind of experiment: SEC-MALS. In general terms: In gel filtration, larger molecules generally elute earlier.
Experiment [3] deals with SmT2 (HM), T4 foldon-trimerized SARS-CoV-2 spike ectodomain with high-mannose N-glycans (SARS-CoV-2 | bacteriophage T4) (UniProt P0DTC2). Kind of experiment: SEC-MALS.

Substance “SmT1 (CT), resistin-trimerized SARS-CoV-2 spike ectodomain with complex-type N-glycans (from UniProt P0DTC2;Q9HD89-1)” displayed a stoichiometry N in experiment [1] of 3.

“SmT2 (CT), T4 foldon-trimerized SARS-CoV-2 spike ectodomain with complex-type N-glycans (from UniProt P0DTC2 14-1208)” registered a stoichiometry N in experiment [2] of 3.

“SmT2 (HM), T4 foldon-trimerized SARS-CoV-2 spike ectodomain with high-mannose N-glycans (from UniProt P0DTC2 14-1208)”: the stoichiometry N in experiment [3] was 3.
